{
  "source": "patent US20130251714A1",
  "about": "(Sanofi, published 2013)",
  "binders": {"B1": {"name": "Mouse anti-hCXCR5 mAb clone 16D7 (antibody, V domains shown)", "VH": "QVQLKESGPGLVAPSQSLSITCTVSGFSLIDYGVNWIRQPPGKGLEWLGVIWGDGTTYYNSALKSRLSIRKDNSQSQVFLKMNSLQTDDTAMYYCARIVYWGQGTLVTVSA", "VL": "DIVMTQAAPSVAVTPRESVSISCRSSKSLLHSSGKTYLYWFLQRPGQSPQLLIYRMSNLASGVPDRFSGSGSGTAFTLRISRVEAEDVGVYYCMQHLEYPYTFGGGTKLEIK", "notes": "Mouse monoclonal antibody from a hybridoma; kappa light chain; also called murine 16D7; parent 16D7 antibody"}, "B2": {"name": "16D7-HC1-LC2 (antibody, V domains shown)", "VH": "B1 VH with Q16E, S61P, A62S, R70S, Q75K, M82V, N83T, Q86T", "VL": "DIVMTQAAPSVAVTPGASVSISCRSSKSLLHSSGKTYLYWFLQRPGQSPQLLIYRLSNLASGVPDRFSGSGSGTAFTLRISRVEAEDVGVYYCMQHLEYPYTFGGGTKLEIKR", "notes": "Humanized 16D7 on an IgG4 backbone / kappa; also called Version3"}, "B3": {"name": "16D7-HC1-LC1 (antibody, V domains shown)", "VH": "B1 VH with Q16E, S61P, A62S, R70S, Q75K, M82V, N83T, Q86T", "VL": "B2 VL with L56M", "notes": "Humanized 16D7 on an IgG4 backbone / kappa; also called Version1"}, "B4": {"name": "16D7-HC2-LC1 (antibody, V domains shown)", "VH": "EVQLKESGPGLVAPGGSLSITCTVSGFSLIDYGVNWIRQPPGKGLEWLGVIWGDGTTYYNAPLKGRLSISKDNSKSQVFLQMNSLKTDDTAMYYCARIVYWGQGTLVTVSS", "VL": "B2 VL with L56M", "notes": "Humanized 16D7 on an IgG4 backbone / kappa; also called Version 2"}, "B5": {"name": "16D7-HC1-LC3 (antibody)", "heavy": "not shown", "light": "DIVMTQAAPSVAVTPGASVSISCRSSKSLLHSSGKTYLYWFLQRPGQSPQLLIYRLSSLASGVPDRFSGSGSGTAFTLRISRVEAEDVGVYYCMQHLEYPYTFGGGTKLEIKRTVAAPSVFIFPPSDEQLKSGTASVVCLLNNFYPREAKVQWKVDNALQSGNSQESVTEQDSKDSTYSLSSTLTLSKADYEKHKVYACEVTHQGLSSPVTKSFNRGEC", "notes": "Humanized 16D7 on an IgG4 backbone / kappa; also called Version 4"}, "B6": {"name": "16D7-HC3-LC4 (antibody, V domains shown)", "VH": "B1 VH with K5Q, Q16E, S61P, A62S, R70S, Q75K, Q86T, T87A, D88A, A111S", "VL": "B2 VL with A7S, P9L, A17E, L56M, R79K", "notes": "Resurfaced 16D7; VL fused to IGKC, VH fused to IGHG4 lacking the C-terminal Lys; also called Version5"}, "B7": {"name": "16D7-HC3-LC5 (antibody, V domains shown)", "VH": "B1 VH with K5Q, Q16E, S61P, A62S, R70S, Q75K, Q86T, T87A, D88A, A111S", "VL": "B2 VL with A7S, P9L, A17E, R79K", "notes": "Resurfaced 16D7; VL fused to IGKC, VH fused to IGHG4 lacking the C-terminal Lys; also called Version6"}, "B8": {"name": "mouse/human IgG4 chimeric 16D7 (antibody, V domains shown)", "VH": "B1 VH", "VL": "B2 VL with G16R, A17E, L56M", "notes": "16D7 VH and VL on human IgG4 (IGHG4 lacking the C-terminal Lys) and kappa (IGKC); also called the hIgG4 chimera"}, "B9": {"name": "16D7-HC1-LC6 (antibody, V domains shown)", "VH": "B1 VH with Q16E, S61P, A62S, R70S, Q75K, M82V, N83T, Q86T", "VL": "B2 VL with A7S, P9L, A17E, N58S, R79K", "notes": "Leader (residues 1-19) left out by comparison with the printed variable domains"}, "B10": {"name": "Humanized SAR113244 (16D7-HC1-LC3 carrying the S241P and L248E substitutions) (antibody)", "heavy": "not shown", "light": "B5 light", "notes": "Leader (residues 1-19) left out as for 16D7-HC1-LC3"}},
  "note": "Changes are numbered by the printed parent chain. Names may count otherwise.",
  "data": [
    {"biological_target": "T1, cynomolgus CXCR5 (on cynomolgus B cells) (cynomolgus monkey, UniProt G8F5K4 1-372)", "T1 construct": "also called cyno CXCR5", "T1 sequence": "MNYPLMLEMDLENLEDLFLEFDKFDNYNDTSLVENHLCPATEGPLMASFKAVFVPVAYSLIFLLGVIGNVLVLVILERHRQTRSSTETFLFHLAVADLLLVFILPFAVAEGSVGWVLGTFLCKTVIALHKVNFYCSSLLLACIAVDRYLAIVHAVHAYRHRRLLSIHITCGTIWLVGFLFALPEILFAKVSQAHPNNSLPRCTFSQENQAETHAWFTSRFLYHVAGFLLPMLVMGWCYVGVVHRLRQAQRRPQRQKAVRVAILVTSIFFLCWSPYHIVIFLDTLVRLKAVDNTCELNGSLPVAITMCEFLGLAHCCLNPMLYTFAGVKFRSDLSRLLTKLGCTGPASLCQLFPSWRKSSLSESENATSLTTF", "assay": "FACS on cynomolgus PBMCs (CD20+ B cells)", "experimental": "Cynomolgus (cyno) monkey whole blood was obtained from Bioreclamation, Inc. (Hicksville, N.Y.). The blood was shipped in BD Cell Preparation Tubes (CPT) post-centrifugation. The cyno PBMCs contained in the plasma layer were removed from the CPT tube into a 50 ml tube leaving the gradient gel layer undisturbed. The tube was washed with 5 ml PBS to completely extract all the cells and the wash was added to a fresh 50 ml tube. The cyno PBMCs were centrifuged at 1200 RPM for 10 minutes at 4° C. The pellet was resuspended in 1 ml BD FACS Stain buffer (BD). One million cells were used per assay. One μg of mouse anti-human CXCR5 monoclonal antibody (purified) was added to 50 μl PBMC and allowed to bind for 20 minutes at 4° C. Cells were washed 2 times with BD Stain buffer. Fifty μl of second antibody, goat anti-mouse IgG-PE F_{(ab′)} (Beckman Coulter) diluted 1/100, was added to the cells and allowed to bind for 20 minutes at 4° C. Cells were washed three times with BD Stain buffer. A cocktail containing mouse anti-human CD20-FITC (BD) and CD4-APC (BD) at 1/20 dilution each was added to cells for a 20 minute incubation at 4° C. for assessment of B/T cell specificity. Cells were washed 3 times with BD Stain buffer, and resuspended in 250 μl BD Stain buffer and subjected to FACS analysis on a FACStarPlus. Commercial mouse anti-human CXCR5 mAb (R&D; MAB 190) was used as a positive control.", "values": [
      {"binder": "B1", "binding result": "no binding (tested: One µg of antibody added to 50 µl PBMC)"},
      {"binder": "B2", "binding result": "no binding"},
      {"binder": "B3", "binding result": "no binding"},
      {"binder": "B4", "binding result": "no binding"},
      {"binder": "B5", "binding result": "no binding"}
    ]},
    {"biological_target": "T2, N-terminal EC region of human CXCR5 (amino acids 1-59), synthetic peptide with a terminal biotin tag (human, UniProt P32302 1-59, terminal biotin tag)", "T2 construct": "range 1-59; also called biotinylated human peptide", "T2 sequence (peptide, looked up)": "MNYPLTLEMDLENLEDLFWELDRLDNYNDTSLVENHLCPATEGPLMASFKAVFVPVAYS", "assay": "Biacore, forward format: biotin-tagged CXCR5 N-terminal peptide (aa 1-59) on the chip, antibody as analyte", "experimental": "The N-terminal EC region of CXCR5 (amino acids 1-59) from human and mouse were synthesized with a terminal biotin tag, and used in a forward format Biacore assay where the peptides were immobilized on a Biacore chip and then the kinetics of antibody interaction with the peptides on the chip were determined. The synthetic peptides were immobilized on a Biacore chip for approximately 20 response units (RUs'). Then the mAb's were exposed to the chip for kinetic measurements, following the manufacturer's recommendations (GE Healthcare, Piscataway, N.J.).", "units": {"Kd": "pM"}, "values": [
      {"binder": "B1", "Kd": 2.16},
      {"binder": "B2", "Kd": 1.41},
      {"binder": "B3", "Kd": 3.11},
      {"binder": "B4", "Kd": 2.4},
      {"binder": "B6", "Kd": 4.92},
      {"binder": "B7", "Kd": 184},
      {"binder": "B8", "Kd": 1.41},
      {"binder": "B9", "Kd": 91.7},
      {"binder": "B5", "Kd": 1.21}
    ]},
    {"biological_target": "T3, un-tagged human CXCR5 N-terminal peptide (amino acids 1-59) (human, UniProt P32302 1-59)", "T3 construct": "range 1-59", "T3 sequence (peptide, looked up)": "T2 sequence (peptide, looked up)", "assay": "Biacore, reverse format: mAb captured by pre-immobilized mouse anti-human IgG Fc antibody, un-tagged peptide as analyte", "experimental": "Humanized SAR113244, a form of the 16D7 humanized variant, 16D7-HC1-LC3 that carries the S241P and L248E substitutions (substitutions introduced practicing known methods and reagents, using Kabat numbering), was captured on a Biacore chip by pre-immobilized mouse anti-human IgG Fc antibody, and then used in a reverse assay format Biacore assay where the kinetics of the un-tagged human CXCR5 N-terminal peptide (amino acids 1-59) interaction with the mAb's on the chip were determined.", "units": {"Kd": "pM"}, "values": [
      {"binder": "B10", "Kd": 11.3}
    ]}
  ]
}
